Reference: patent US11160871B2, “SSTR-targeted conjugates and particles and formulations thereof” (TARVEDA THERAPEUTICS, INC., priority 2015, dated 2021)
Where two headings read alike, the source gives them in different places.

What was measured:
Plasma protein binding = assay type: in vitro ADME; conditions: for fraction unbound at 1 uM: read-out: Free fraction at 1 uM (%); for fraction unbound at 10 uM: read-out: Free fraction at 10 uM (%)
Source text: Plasma protein binding is not concentration dependent and is consistent across species.

[1] = test system: panel of GPCRs (119 targets); test: Off-target binding to a panel of GPCRs; conditions: 1 uM concentration
Experimental: To further study the off-target binding of Conjugate 57, the binding of Conjugate 57 to a panel of GPCRs (119 targets) was measured at 1 uM concentration. Conjugate 57 has no activity against the panel of GPCRs.

hERG = hERG (Homo sapiens, UniProt Q12809); test: IonWorks Quattro hERG assay; assay type: cell-based; conditions: up to 10 uM
Sequence of hERG (Q12809 whole entry): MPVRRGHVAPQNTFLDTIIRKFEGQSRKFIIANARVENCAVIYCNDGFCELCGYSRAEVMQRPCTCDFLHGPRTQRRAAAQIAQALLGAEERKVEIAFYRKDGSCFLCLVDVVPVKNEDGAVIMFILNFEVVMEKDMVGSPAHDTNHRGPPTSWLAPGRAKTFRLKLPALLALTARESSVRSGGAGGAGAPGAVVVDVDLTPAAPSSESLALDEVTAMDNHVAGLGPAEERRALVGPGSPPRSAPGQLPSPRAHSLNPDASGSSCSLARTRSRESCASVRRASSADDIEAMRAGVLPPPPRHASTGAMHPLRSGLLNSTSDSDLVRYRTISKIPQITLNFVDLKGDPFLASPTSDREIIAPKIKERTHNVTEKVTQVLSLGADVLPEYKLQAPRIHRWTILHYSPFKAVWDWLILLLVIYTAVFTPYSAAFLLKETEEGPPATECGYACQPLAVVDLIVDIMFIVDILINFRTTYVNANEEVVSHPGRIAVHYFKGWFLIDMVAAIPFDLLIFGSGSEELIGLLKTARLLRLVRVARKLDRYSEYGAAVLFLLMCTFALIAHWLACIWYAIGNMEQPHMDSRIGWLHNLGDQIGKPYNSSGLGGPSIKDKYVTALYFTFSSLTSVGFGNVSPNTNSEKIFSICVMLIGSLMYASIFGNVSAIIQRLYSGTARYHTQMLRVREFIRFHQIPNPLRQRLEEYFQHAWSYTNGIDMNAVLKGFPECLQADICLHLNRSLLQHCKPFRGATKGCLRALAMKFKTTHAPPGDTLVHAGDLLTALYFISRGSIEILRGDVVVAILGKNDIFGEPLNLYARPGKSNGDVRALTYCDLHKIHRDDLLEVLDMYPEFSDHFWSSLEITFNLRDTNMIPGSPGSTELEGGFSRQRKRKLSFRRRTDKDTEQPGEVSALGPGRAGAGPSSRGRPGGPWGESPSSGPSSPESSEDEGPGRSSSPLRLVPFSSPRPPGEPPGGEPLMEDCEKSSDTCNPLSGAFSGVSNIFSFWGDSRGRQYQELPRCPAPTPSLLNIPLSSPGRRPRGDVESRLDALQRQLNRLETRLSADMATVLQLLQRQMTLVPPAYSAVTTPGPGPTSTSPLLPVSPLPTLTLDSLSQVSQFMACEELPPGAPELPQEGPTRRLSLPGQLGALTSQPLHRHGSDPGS

COc1cc2cc(c1Cl)N(C)C(=O)C[C@H](OC(=O)[C@H](C)N(C)C(=O)CCSSC[C@H](NC(=O)[C@@H]1CSSC[C@H](NC(=O)[C@H](N)Cc3ccccc3)C(=O)N[C@@H](Cc3ccc(O)cc3)C(=O)N[C@H](Cc3c[nH]c4ccccc34)C(=O)N[C@@H](CCCCN)C(=O)N[C@@H]([C@@H](C)O)C(=O)N1)C(N)=O)[C@]1(C)O[C@H]1[C@H](C)[C@@H]1C[C@@](O)(NC(=O)O1)[C@H](OC)/C=C/C=C(\C)C2 [Conjugate 57]
fraction unbound at 1 uM (Plasma protein binding; Dog plasma): 0.044
fraction unbound at 10 uM (Plasma protein binding; Dog plasma): 0.033
fraction unbound at 1 uM (Plasma protein binding; Human plasma): 0.078
fraction unbound at 10 uM (Plasma protein binding; Human plasma): 0.078
fraction unbound at 1 uM (Plasma protein binding; Mouse plasma): 0.082
fraction unbound at 10 uM (Plasma protein binding; Mouse plasma): 0.094
fraction unbound at 1 uM (Plasma protein binding; Rat plasma): 0.063
fraction unbound at 10 uM (Plasma protein binding; Rat plasma): 0.074
activity against the panel of GPCRs [1]: no activity
inhibition of hERG (hERG): no inhibition
